The text below walks through data of patent US20240309115A1 (MERUS N V, published 2024).

Changes are numbered by the printed parent chain.

Assay [1] deals with T1, human LAG-3 (293FF cell line stably transfected with human LAG-3) (human, UniProt P18627 23-525).
T1 construct: whole, on cells; also called huLAG-3; 293FF-huLAG-3
T1 sequence (looked up): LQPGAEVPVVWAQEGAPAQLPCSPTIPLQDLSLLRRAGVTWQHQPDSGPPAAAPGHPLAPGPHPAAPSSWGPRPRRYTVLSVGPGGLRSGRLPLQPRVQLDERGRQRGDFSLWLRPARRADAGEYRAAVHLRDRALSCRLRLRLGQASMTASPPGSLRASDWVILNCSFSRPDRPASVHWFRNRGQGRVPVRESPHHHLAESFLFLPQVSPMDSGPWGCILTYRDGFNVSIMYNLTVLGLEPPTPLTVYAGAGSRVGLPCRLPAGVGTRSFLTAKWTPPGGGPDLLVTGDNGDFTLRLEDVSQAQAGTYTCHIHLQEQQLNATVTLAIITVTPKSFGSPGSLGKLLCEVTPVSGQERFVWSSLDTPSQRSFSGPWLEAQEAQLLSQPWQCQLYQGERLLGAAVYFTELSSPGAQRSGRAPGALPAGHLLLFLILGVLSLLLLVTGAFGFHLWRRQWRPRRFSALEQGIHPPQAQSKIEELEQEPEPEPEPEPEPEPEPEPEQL
The experiment in a line: FACS on 293FF cells expressing human LAG-3.

Assay [2] addresses T2, LAG-3 on PD-1 and LAG-3 expressing Jurkat T cells (effector cells of the PD-1/LAG-3 reporter assay) (UniProt P18627 23-525).
T2 sequence (looked up): T1 sequence (looked up)
The experiment in a line: cell-based or functional assay.

For assay [3], the target named is T3, PD-L1 on PD-L1 expressing Raji cells (target cells of the PD-1/LAG-3 reporter assay) (UniProt Q9NZQ7 19-290, limits assumed). The experiment in a line: cell-based or functional assay.
Assay [4] has as its target T4, human PD-L1 (CHO-K1 cell line stably transfected with human PD-L1) (human, UniProt Q9NZQ7 19-290).
T4 construct: whole, on cells; also called huPD-L1; CHO-K1-huPD-L1
Kind of assay: FACS on CHO-K1 cells expressing human PD-L1.

The target in assay [5] is T4, human PD-L1 (CHO-K1 cell line stably …). Kind of assay: FACS on CHO-K1-huPD-L1 cells.
Assay [6] concerns the target T1, human LAG-3 (293FF cell line stably …). Kind of assay: FACS on 293FF-huLAG-3 cells.
Assay [7] addresses T5, rhesus LAG-3 (293FF cell line stably transfected with rhesus LAG-3) (rhesus, UniProt A0A5F8A874 23-533).
T5 construct: whole, on cells; also called reLAG-3; 293FF-reLAG-3
T5 sequence: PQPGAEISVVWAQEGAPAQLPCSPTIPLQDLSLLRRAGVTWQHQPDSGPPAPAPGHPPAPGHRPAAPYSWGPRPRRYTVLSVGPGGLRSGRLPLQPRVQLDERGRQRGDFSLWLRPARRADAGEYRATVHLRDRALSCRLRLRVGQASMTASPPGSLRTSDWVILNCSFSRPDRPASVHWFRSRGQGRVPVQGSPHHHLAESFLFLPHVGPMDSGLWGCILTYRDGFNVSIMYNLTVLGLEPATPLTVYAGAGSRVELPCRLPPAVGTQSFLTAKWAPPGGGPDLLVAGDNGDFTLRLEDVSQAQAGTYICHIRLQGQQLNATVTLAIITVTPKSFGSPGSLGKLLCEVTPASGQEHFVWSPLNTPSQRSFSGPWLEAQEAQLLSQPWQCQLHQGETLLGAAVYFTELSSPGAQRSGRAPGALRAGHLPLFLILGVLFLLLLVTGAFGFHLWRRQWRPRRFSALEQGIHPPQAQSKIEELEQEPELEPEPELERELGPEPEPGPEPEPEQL
Kind of assay: FACS on 293FF-reLAG-3 cells.

The target of assay [8] is T2, LAG-3 on PD-1 and LAG-3 expressing …. The experiment in a line: cell-based or functional assay. This is another data set of the same source.
Assay [9] concerns the target T3, PD-L1 on PD-L1 expressing Raji cells …. The experiment in a line: cell-based or functional assay. This is another data set of the same source.
In assay [10] the target is T5, rhesus LAG-3 (293FF cell line stably …). Kind of assay: FACS on 293FF cells stably expressing rhesus LAG-3, goat-anti-human PE secondary, MFI.
Assay [11] has as its target T6, rhesus PD-L1 (CHO-K1 cell line stably transfected with rhesus PD-L1) (rhesus, UniProt F6VEW6 19-290).
T6 construct: whole, on cells
Kind of assay: FACS on CHO-K1 cells stably expressing rhesus PD-L1, goat-anti-human PE secondary, MFI.

For assay [12], the target named is T7, cynomolgus monkey LAG-3-His (Sino Biological, Cat nr. 90841-C08H) (cynomolgus monkey).
T7 construct: also called cynomolgus LAG-3
Kind of assay: SPR, BIAcore T200, antibody captured by anti-huIgG Fcγ on a CM5 chip, antigen in solution, 1:1 model. A general note: In SPR one partner is held on a chip, and binding of the other changes the refractive index at the surface.

T3 sequence (Q9NZQ7 19-290 limits assumed): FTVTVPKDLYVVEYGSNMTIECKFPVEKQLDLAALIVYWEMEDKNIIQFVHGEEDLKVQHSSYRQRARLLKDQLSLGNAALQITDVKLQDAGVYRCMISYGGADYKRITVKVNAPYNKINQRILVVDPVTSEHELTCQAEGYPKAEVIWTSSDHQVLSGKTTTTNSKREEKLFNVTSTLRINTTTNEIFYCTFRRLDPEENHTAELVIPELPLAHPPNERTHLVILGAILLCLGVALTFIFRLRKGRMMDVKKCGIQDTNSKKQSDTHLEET
T4 sequence (Q9NZQ7 19-290): as the sequence (Q9NZQ7 19-290 limits assumed) above

B1: SEQ ID NO: 5×SEQ ID NO: 23 bispecific antibody (bispecific antibody)
heavy (part 1 of 2) 1: QVQLQESGPGLVKPSETLSLTCTVSDDSISDYYWSWIRQPPGKGLEWIGYIYYSGNTKYNPSLKNRVTISVDTSKSQFSLKLTSVTAADTAVYYCARIPLTGEFDYWAQGTLVTVSSASTKGPSVFPLAPSSKSTSGGTAALGCLVKDYFPEPVTVSWNSGALTSGVHTFPAVLQSSGLYSLSSVVTVPSSSLGTQTYICNVNHKPSNTKVDKRV
heavy (part 2 of 2) 1: not shown
heavy (part 1 of 2) 2: not shown
heavy (part 2 of 2) 2: not shown
light: not shown
notes: Fc-silenced IgG1, monovalent for LAG-3 and for PD-L1; also called PB19; not shown: IgG1 hinge
For the molecule B1, the figures for the EC50 in assay [1] and in assay [4] were 8.64 nM and 1.21 nM, respectively. Moreover, the “AUC compared to control, PD-1/LAG-3 reporter assay (luciferase)” value (“AUC compared to control” for short) in assay [2] and in [3] was 83.9 relative to AUC of positive control each time.

B2: bivalent monospecific parental LAG-3 antibody SEQ ID NO: 5 (antibody, IgG1)
heavy (part 1 of 2): B1 heavy (part 1 of 2) 1
heavy (part 2 of 2): not shown
light: not shown
notes: IgG1; not shown: IgG1 hinge
Regarding B2, it took 1.88 nM to reach a half-maximal effect in assay [1] (EC50).

B3: SEQ ID NO: 52×SEQ ID NO: 20 bispecific antibody (bispecific antibody)
heavy (part 1 of 2) 1: B1 heavy (part 1 of 2) 1 with E103D, Y106F
heavy (part 2 of 2) 1: not shown
heavy (part 1 of 2) 2: not shown
heavy (part 2 of 2) 2: not shown
light: not shown
notes: IgG1; also called PB90; not shown: IgG1 hinge
For the molecule B3, the concentration for a half-maximal effect (EC50) in assay [5] is 0.009 µg/mL; in assay [6], 1.25 µg/mL; in assay [7], 3.22 µg/mL. The “AUC (% of control), PD-1/LAG-3 reporter assay” value in assay [8] and in [9] was 96.9 % of control throughout. In addition, the “EC50, PD-1/LAG-3 reporter assay” value in assay [8] and in assay [9] was 1.15 µg/mL throughout.

B4: SEQ ID NO: 15×SEQ ID NO: 23 bispecific antibody (bispecific antibody)
heavy (part 1 of 2) 1: QVQLVQSGAEVKKPGASVKVSCKASGYTFTSYGISWVRQAPGQGLEWMGWISAYSGNTNYAQKLQGRVTMTTDTSTSTAYMELRSLRSDDTAVYYCARDGSGWDDFDYWGQGTLVTVSSASTKGPSVFPLAPSSKSTSGGTAALGCLVKDYFPEPVTVSWNSGALTSGVHTFPAVLQSSGLYSLSSVVTVPSSSLGTQTYICNVNHKPSNTKVDKRV
heavy (part 2 of 2) 1: not shown
heavy (part 1 of 2) 2: not shown
heavy (part 2 of 2) 2: not shown
light: not shown
notes: Fc-silenced IgG1, monovalent for LAG-3 and for PD-L1; also called PB59; not shown: IgG1 hinge
In the case of B4, the EC50 in assay [1] came to 113 nM; in assay [4] it was 2.41 nM. Moreover, the “AUC compared to control” value in [2] and in [3] was 71 relative to AUC of positive control in each case.

B5: bivalent monospecific parental LAG-3 antibody SEQ ID NO: 15 (antibody, IgG1)
heavy (part 1 of 2): B4 heavy (part 1 of 2) 1
heavy (part 2 of 2): not shown
light: not shown
notes: IgG1; not shown: IgG1 hinge
Regarding B5, the concentration for a half-maximal effect (EC50 (read off the curve)) in assay [10] was about 0.6 µg/mL. This molecule yielded an EC50 in [1] of 0.94 nM.

B6: SEQ ID NO: 1×SEQ ID NO: 23 bispecific antibody (bispecific antibody)
heavy (part 1 of 2) 1: QVQLQESGPGLVRPSETLSLTCTVSGGSISSYSWSWIRQPPGKGLEWIGYIDYSGSTNYNPSLKSRVTISVDTSKTQFSLKLSSVSAADTAVYYCAKDLLYKWNYVEGFDIWGQGTTVTVSSASTKGPSVFPLAPSSKSTSGGTAALGCLVKDYFPEPVTVSWNSGALTSGVHTFPAVLQSSGLYSLSSVVTVPSSSLGTQTYICNVNHKPSNTKVDKRV
heavy (part 2 of 2) 1: not shown
heavy (part 1 of 2) 2: not shown
heavy (part 2 of 2) 2: not shown
light: not shown
notes: Fc-silenced IgG1, monovalent for LAG-3 and for PD-L1; also called PB3; not shown: IgG1 hinge
Regarding B6, the values for the EC50 in [1] and in assay [4] were 52.1 nM and 0.74 nM, respectively. Moreover, the “AUC compared to control” value in [2] and in assay [3] was 54.8 relative to AUC of positive control each time. Moreover, in assay [11], the “EC50 (read off the curve)” value is about 0.05 µg/mL.

B7: bivalent monospecific parental LAG-3 antibody SEQ ID NO: 1 (antibody, IgG1)
heavy (part 1 of 2): B6 heavy (part 1 of 2) 1
heavy (part 2 of 2): not shown
light: not shown
notes: IgG1; not shown: IgG1 hinge
The molecule B7 gave a concentration for a half-maximal effect (EC50) in assay [1] of 0.54 nM.

B8: SEQ ID NO: 16×SEQ ID NO: 23 bispecific antibody (bispecific antibody)
heavy (part 1 of 2) 1: QVQLVQSGAEVKKPGASVKVSCKASGYTFTSYGISWVRQAPGQGLEWMGWISAYSGNTNYAQKLQGRVTMTTDTSTSTAYMELRSLRSDDTAVYYCARGSILAAQMWGDIWGQGTLVTVSSASTKGPSVFPLAPSSKSTSGGTAALGCLVKDYFPEPVTVSWNSGALTSGVHTFPAVLQSSGLYSLSSVVTVPSSSLGTQTYICNVNHKPSNTKVDKRV
heavy (part 2 of 2) 1: not shown
heavy (part 1 of 2) 2: not shown
heavy (part 2 of 2) 2: not shown
light: not shown
notes: Fc-silenced IgG1, monovalent for LAG-3 and for PD-L1; also called PB63; not shown: IgG1 hinge
B8: the EC50 in assay [1] stood at 24.1 nM; in [4] it was 1.01 nM. Further, the “AUC compared to control” value in assay [2] and in assay [3] was 58.3 relative to AUC of positive control each time.

B9: bivalent monospecific parental LAG-3 antibody SEQ ID NO: 16 (antibody, IgG1)
heavy (part 1 of 2): B8 heavy (part 1 of 2) 1
heavy (part 2 of 2): not shown
light: not shown
notes: IgG1; not shown: IgG1 hinge
With B9, in assay [1], the EC50 amounted to 13.3 nM.

B10: relatlimab analog (antibody, V domains shown)
VH: QVQLQQWGAGLLKPSETLSLTCAVYGGSFSDYYWNWIRQPPGKGLEWIGEINHRGSTNSNPSLKSRVTLSLDTSKNQFSLKLRSVTAADTAVYYCAFGYSDYEYNWFDPWGQGTLVTVSS
VL: EIVLTQSPATLSLSPGERATLSCRASQSISSYLAWYQQKPGQAPRLLIYDASNRATGIPARFSGSGSGTDFTLTISSLEPEDFAVYYCQQRSNWPLTFGQGTNLEIK
notes: also called analog of anti-LAG-3 antibody relatlimab
B10 returned a dissociation constant Kd in assay [12] of 11.5 nM.

Broadly, the EC50 is the concentration at which the effect is half-maximal. What is called EC50 (read off the curve) is the concentration that produces a half-maximal response. Usually Kd stands for the constant that tells how readily two partners part at equilibrium.
